The results in this text go back to US20260227403A1 (HENRY M JACKSON FOUNDATION FOR THE ADVANCEMENT OF MILITARY …, published 2026).

In general, EC50 (read off the curve) refers to the concentration needed to bring the measured effect to its halfway point.

In assay [1] the target is T1, FLAG-SPDEF (NM_012391) (UniProt O95238 1-335).
T1 construct: Expressed in HEK-293 cells and tested as cell lysate on an immunoblot; also called SAM pointed domain-containing ETS transcription factor; not shown: FLAG tag
T1 sequence (looked up): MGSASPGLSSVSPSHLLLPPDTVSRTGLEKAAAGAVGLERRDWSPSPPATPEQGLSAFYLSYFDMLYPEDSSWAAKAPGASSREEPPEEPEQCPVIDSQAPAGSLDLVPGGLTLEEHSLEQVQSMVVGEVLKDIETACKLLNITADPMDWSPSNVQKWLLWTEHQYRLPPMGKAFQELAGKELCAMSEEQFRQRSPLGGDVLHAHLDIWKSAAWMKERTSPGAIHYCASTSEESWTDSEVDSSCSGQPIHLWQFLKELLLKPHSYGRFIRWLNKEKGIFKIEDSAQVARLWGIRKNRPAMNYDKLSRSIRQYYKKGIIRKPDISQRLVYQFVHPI
Description: immunoblot of cell lysates (HEK-293 2 µg per lane) probed with 29E4; the protein is shown present in panels D and F. The method, then: Immunoblots using antibodies against ETV1 (A and H), ETV4 (B), ERG (C), SPDEF (D), FLI1 (E), FLAG (F), and GAPDH (G), as a loading control. […] PC3 cells were transfected with 25 nM non-targeting (NT) siRNA or ETV-1 siRNA oligos (lanes 1 and 2, respectively). […] were infected with either a control vector (lane 10) or adenoviral vector expressing FLI1 (lanes 11).
Cell lysates were then cleared by centrifugation at 10,000×g for 15 minutes at 4° C. and transferred to fresh tubes. Protein concentration was measured using Protein Assay Reagent (Bio-Rad, Hercules, CA). […] Separated proteins were transferred onto PVDF membranes using a Trans-Blot SD semi-dry transfer cell (BioRad) at 25 V for 90 minutes. Membranes were blocked in blocking buffer (Tris buffered saline with 0.25% Tween 20 (TBST) containing 1% BSA) for one hour at room temperature before incubation with primary antibodies (1 ng/mL) for 12 hours at 4° C. Membranes were then washed with wash buffer (TBST) in three ten-minute washes before treatment with IRDye 680RD conjugated goat anti-rabbit or IRDye 800 RD conjugated goat anti-mouse secondary antibodies (LI-COR Biosciences, Lincoln, NE) for three hours at room temperature.
On the technique in general: In western blotting, separated proteins are transferred to a membrane and probed.

For assay [2], the target named is T2, P35.
T2 construct: C-terminal truncation of P1
T2 peptide: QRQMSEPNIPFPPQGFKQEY
Description: ELISA: 1 µg peptide coated per well, 29E4 at 20 ng/mL, HRP goat anti-rabbit Ig 1:16,000, ABS 450 nm, duplicates [CONT. 1].

Assay [3] deals with T3, P32.
T3 construct: C-terminal truncation of P1
T3 peptide: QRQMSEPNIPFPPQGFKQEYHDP
The description is as above.

Assay [4] addresses T4, P39.
T4 construct: N-terminal truncation of P1
The description is as above.

Assay [5] has as its target T5, overlapping peptide P3 (12 amino acids, FIG. 3 panel A) (human).
T5 construct: The overlapping 12-mer is meant here
T5 peptide: MSEPNIPFPPQG
Description: ELISA: 500 ng peptide coated per well, 29E4 titrated 0-1000 ng/mL, HRP goat anti-rabbit Ig 1:16,000, ABS 450 nm, duplicates. From the text: (§1) HRP Goat anti-rabbit Ig was applied at 1:16,000 dilution in all reactions.
(§2) Peptides were synthesized to achieve ≥70% HPLC purity by a commercial vendor (GenScript Biotech, Piscataway, NJ). Peptides were reconstituted in either water, or with addition of acetonitrile, methanol, 10% acetic acid, or DMSO, depending on the overall charge of each peptide. Key residues required for mAb binding were probed by ELISA using overlapping peptides, truncated peptides and alanine substituted peptides. Reactions were performed in duplicate using NUNC 96-well flatbottom MaxiSorp plates (Thermo Scientific). After coating each well with 500 ng of peptide in 100 μL coating buffer (50 mM NaHCO₃, pH 9.6), the plates were sealed and incubated at 4° C. overnight. […] Plates were then washed once with wash buffer, incubated with 100 μL mAb 29E4 (serially diluted from 1 mg/mL) for 1 hour at 37° C. Plates were further washed four times with wash buffer, and then incubated at 37° C. with 100 μL of a horse radish peroxidase (HRP)-conjugated secondary antibody against the primary antibody, diluted 1:16,000 according to manufacturer's protocols (KPL, Inc., Gaithersburg, MD). After washing four times with wash buffer, 100 μL of K-Blue Aqueous TMB substrate (Neogen, Lexington, KY) was added to the plates and incubated uncovered for 30 minutes at room temperature. To stop the reaction, 100 μL of 2 N Sulphuric acid was added to each well and absorbance were measured immediately at 450 nm. All dilutions of reagents were performed in ELISA diluent (20% NGS in 1×PBS with 0.1% Triton-X 100).

The target in assay [6] is T6, overlapping peptide P4 (12 amino acids, FIG. 3 panel A) (human).
T6 peptide: PNIPFPPQGFKQ
The description is as above.
Excerpt: as §1, §2

Assay [7] concerns the target T7, overlapping peptide P5 (12 amino acids, FIG. 3 panel A) (human).
T7 construct: The overlapping 12-mer is meant here
T7 peptide: PFPPQGFKQEYH
The assay is described as above.
Excerpt: as §1, §2

For assay [8], the target named is T8, overlapping peptide P6 (12 amino acids, FIG. 3 panel A) (human).
T8 construct: The overlapping 12-mer is meant here
T8 peptide: PQGFKQEYHDPV
The assay is described as above.
Excerpt: as §1, §2

Assay [9] deals with T9, overlapping peptide P7 (12 amino acids, FIG. 3 panel A) (human).
T9 construct: The overlapping 12-mer is meant here
T9 peptide: FKQEYHDPVYEH
The description is as above.
Excerpt: as §1, §2

Assay [10] has as its target T10, ETV1 immunogenic peptide P1 (human).
T10 construct: 27 amino acid peptide, ETV1 residues 212-238; also called immunogen peptide; ETV1 P1 peptide
The description is as above.
Excerpt: as §1, §2

T10 sequence (peptide, as listed by the source): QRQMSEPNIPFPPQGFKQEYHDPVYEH

B1: ETV1 rabbit monoclonal antibody (29E4) (antibody, V domains shown)
VH: QELEESGGDLVKPGASLTLTCTASGFFFSAENHICWVRQAPGKGLEWIGCVYIGSYVGGSGDPYYASWAKGRFTISKTSSTTVTLQMSSLTAADTATYFCARDLGSLWGPGTLVTVSS
VL: DVVMTQTASSVSAAVGGTVTIACQSSQSVYDNNNLAWFQQKPGQPPKRLIYSASTLASGVSSRFKGSGYGTQFTLTISDVQCDDAATYYCVGAFSGYIFVFGGGTEVVVK
notes: constant regions are not; also called 29E4 mAb; ETV1 29E4 mAb
On to B1, for which the binding result in assay [1] was “no binding”; in assay [2] it was “binds”; in [3], “binds”; in assay [4] it was “binds”; in [5] it was “binds”; in assay [7] it was “binds”. Besides, the binding result in [8] and in [9] was “no binding (tested: 1000 ng/mL)” in each case. Moreover, the “EC50 (read off the curve)” value in [6] is around 0.1 mg/L; in assay [10] it was around 0.02 mg/L.
